Measured values published in patent US20250092135A1 (NANJING LEADS BIOLABS, published 2025).
One block for each binder: values may come before it.

Tests used:
[1] = target: T1, human CD3 protein endogenously expressed on Jurkat cells (human, UniProt P07766 23-207); assay: flow cytometry, Jurkat cells (endogenous CD3), PE anti-human IgG Fc secondary, MFI; EC50 table under the plot, unit from the axis Conc.(nM); curve flat at about 1250 up to about 33 nM, about 1900-2200 at the two top concentrations
T1 construct: whole, on cells; The whole CD3 complex is on the cells; also called CD3 on Jurkat cells; CD3 on Jurkat/NFAT-luc cells
Procedure: (3) Whether the anti-CD3/anti-MUC16 bispecific antibodies in the present invention could bind to the CD3 protein endogenously expressed on Jurkat cells (Cell Bank of Type Culture Collection Committee of the Chinese Academy of Sciences, Cat #SCSP-513) was determined by cell binding experiments. Detection was performed using the flow cytometry described above, with the following differences: the dilution gradient for the test bispecific antibody was: a maximum concentration of 200 nM, starting from a second concentration of 100 nM, 5-fold dilution, 10 points; the bispecific antibodies were added to Jurkat cells, and the cells were incubated at 4° C. for 30 min. The cells were washed twice with PBS, and then fluorescent secondary antibody R-PE-conjugated AffiniPure Goat Anti-Human IgG, Fcγ Fragment Specific was added. The cells were incubated at 4° C. for 30 min. The cells were washed twice with PBS and then resuspended, and finally, fluorescence signals were detected using a BD Accuri C5 (BD Bioscience) flow cytometer.

Human MUC16-His = target: T2, Human MUC16-His (human); assay: BLI (ForteBio Octet RED96), antibody on AHC sensor, 1:1 model
T2 construct: The entry includes the C-terminal 6xHis tag; also called membrane-proximal end of the extracellular region of the human MUC16 protein; Human MUC16 protein
T2 chain: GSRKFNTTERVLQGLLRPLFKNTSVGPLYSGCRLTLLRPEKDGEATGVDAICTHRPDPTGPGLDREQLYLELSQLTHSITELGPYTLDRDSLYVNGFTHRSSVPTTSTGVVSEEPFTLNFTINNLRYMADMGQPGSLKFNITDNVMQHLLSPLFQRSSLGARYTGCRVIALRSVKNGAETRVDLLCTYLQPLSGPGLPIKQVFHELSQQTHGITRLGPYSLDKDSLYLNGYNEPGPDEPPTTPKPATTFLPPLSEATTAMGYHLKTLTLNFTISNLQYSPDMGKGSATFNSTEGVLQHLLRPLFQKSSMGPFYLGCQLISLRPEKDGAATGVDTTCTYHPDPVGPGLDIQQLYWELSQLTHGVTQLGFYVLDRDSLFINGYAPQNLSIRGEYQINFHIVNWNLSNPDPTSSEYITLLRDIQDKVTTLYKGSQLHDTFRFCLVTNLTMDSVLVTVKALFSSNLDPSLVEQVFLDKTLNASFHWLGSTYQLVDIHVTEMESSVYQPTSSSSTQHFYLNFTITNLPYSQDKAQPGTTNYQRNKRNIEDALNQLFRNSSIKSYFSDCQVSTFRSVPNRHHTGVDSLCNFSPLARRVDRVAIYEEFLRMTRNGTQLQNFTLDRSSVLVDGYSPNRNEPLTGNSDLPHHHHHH

Rhesus monkey MUC16-His = target: T3, Rhesus monkey MUC16-His (rhesus monkey); assay: as above
T3 construct: The entry includes the C-terminal 6xHis tag; also called membrane-proximal end of the extracellular region of the rhesus monkey MUC16 protein
T3 chain: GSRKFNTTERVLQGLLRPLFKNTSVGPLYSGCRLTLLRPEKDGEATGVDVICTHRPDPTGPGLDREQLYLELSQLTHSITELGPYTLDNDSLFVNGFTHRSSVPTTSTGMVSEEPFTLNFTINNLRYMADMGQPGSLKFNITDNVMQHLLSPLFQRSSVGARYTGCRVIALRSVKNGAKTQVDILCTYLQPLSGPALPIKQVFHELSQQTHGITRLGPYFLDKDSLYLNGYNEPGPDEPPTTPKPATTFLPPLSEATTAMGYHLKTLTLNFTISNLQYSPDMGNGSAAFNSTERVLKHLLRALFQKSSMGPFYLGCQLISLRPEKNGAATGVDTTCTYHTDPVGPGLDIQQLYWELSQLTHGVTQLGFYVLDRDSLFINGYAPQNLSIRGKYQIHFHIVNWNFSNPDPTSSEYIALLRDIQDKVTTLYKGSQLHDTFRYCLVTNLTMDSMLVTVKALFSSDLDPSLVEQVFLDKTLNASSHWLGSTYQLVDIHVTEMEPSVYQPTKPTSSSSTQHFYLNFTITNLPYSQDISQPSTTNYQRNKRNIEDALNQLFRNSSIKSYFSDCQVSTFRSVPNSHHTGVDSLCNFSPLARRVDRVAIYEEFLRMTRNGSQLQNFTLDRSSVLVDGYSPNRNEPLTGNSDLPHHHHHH

T1 sequence (P07766 23-207): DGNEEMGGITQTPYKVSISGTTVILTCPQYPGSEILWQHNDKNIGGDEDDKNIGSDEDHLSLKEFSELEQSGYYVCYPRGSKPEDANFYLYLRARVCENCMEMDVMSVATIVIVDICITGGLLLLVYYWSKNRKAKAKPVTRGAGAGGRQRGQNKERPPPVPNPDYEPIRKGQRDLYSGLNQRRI

- EC50 [1]: ~39.3 nM
B1: anti-CD3/MUC16 bispecific antibody MCH7-23L2-MCH7 (bispecific antibody, human IgG1, kappa, L234A L235A)
heavy 1: QVQLVQSGAEVKKPGASVKVSCKASGYTFTDYNIHWVRQAPGQGLEWMGYIYPYNGVSDYNQNFKSRVTMTTDTSTSTAYMELRSLRSDDTAVYYCARWDFGSGYYFDYWGQGTLVTVSSASTKGPSVFPLAPSSKSTSGGTAALGCLVKDYFPEPVTVSWNSGALTSGVHTFPAVLQSSGLYSLSSVVTVPSSSLGTQTYICNVNHKPSNTKVDKKVEPKSCEVQLVESGGGLVQPGGSLKLSCAASGFTFSTYAMNWVRQAPGKGLEWVGRIRSKYNNYATYYADSVKDRFTISRDDSKNTLYLQMNSLKTEDTAVYYCTRHGNFGNSYVSWFAYWGQGTTVTVSSGGGGSGGGGSGGGGSQAVVTQEPSLTVSPGGTVTLTCRSSTGAVTTSNYANWVQQKPGQAPRGLIGGTNKRAPGVPARFSGSLLGGKAALTLSGAQPEDEAEYFCALWYSNLWVFGGGTKLTVLGEPKSSDKTHTCPPCPAPEAAGGPSVFLFPPKPKDTLMISRTPEVTCVVVAVSHEDPEVKFNWYVDGVEVHNAKTKPREEQYNSTYRVVSVLTVLHQDWLNGKEYKCKVSNKALAAPIEKTISKAKGQPREPQVCTLPPSRDELTKNQVSLSCAVKGFYPSDIAVEWESNGQPENNYKTTPPVLDSDGSFFLVSKLTVDKSRWQQGNVFSCSVMHEALHNHYTQKSLSLSPGK
heavy 2: not shown
light: EIVLTQSPATLSLSPGERATLSCRASSSVIYMSWYQQKPGQAPRLLIYGTSTLASGIPARFSGSGSGTDFTLTISSLEPEDFAVYYCQQWSSNPFTFGQGTKLEIKRTVAAPSVFIFPPSDEQLKSGTASVVCLLNNFYPREAKVQWKVDNALQSGNSQESVTEQDSKDSTYSLSSTLTLSKADYEKHKVYACEVTHQGLSSPVTKSFNRGEC
notes: MCH7-23L2ScFv-Hole (VH-CH1-scFv-Fc) + MCH7-KIH-Knob + two light chains MCL4 LC

- Kd (Human MUC16-His): 2.9 nM
- koff (Human MUC16-His): 0.000911 s⁻¹
- kon (Human MUC16-His): 314000 M⁻¹ s⁻¹
- Kd (Rhesus monkey MUC16-His): 1.04 nM
- koff (Rhesus monkey MUC16-His): 0.000263 s⁻¹
- kon (Rhesus monkey MUC16-His): 254000 M⁻¹ s⁻¹
B2: humanized anti-MUC16 antibody Hu-L4H7 (antibody, human IgG1, kappa, L234A L235A, V domains shown)
VH: QVQLVQSGAEVKKPGASVKVSCKASGYTFTDYNIHWVRQAPGQGLEWMGYIYPYNGVSDYNQNFKSRVTMTTDTSTSTAYMELRSLRSDDTAVYYCARWDFGSGYYFDYWGQGTLVTVSS
VL: EIVLTQSPATLSLSPGERATLSCRASSSVIYMSWYQQKPGQAPRLLIYGTSTLASGIPARFSGSGSGTDFTLTISSLEPEDFAVYYCQQWSSNPFTFGQGTKLEIKR
notes: human IgG1 with L234A, L235A, D265A, P329A and kappa; Biotinylated in the CA125 ELISA; also called humanized MUC-16 antibody
